The target in data set [1] is T1, human pancreatic GCK (Homo sapiens, UniProt P35557).
T1 construct: hexahistidine (N); made in house; host or cells: glucokinase auxotroph BM5340(DE3)
T1 sequence (P35557 1-465): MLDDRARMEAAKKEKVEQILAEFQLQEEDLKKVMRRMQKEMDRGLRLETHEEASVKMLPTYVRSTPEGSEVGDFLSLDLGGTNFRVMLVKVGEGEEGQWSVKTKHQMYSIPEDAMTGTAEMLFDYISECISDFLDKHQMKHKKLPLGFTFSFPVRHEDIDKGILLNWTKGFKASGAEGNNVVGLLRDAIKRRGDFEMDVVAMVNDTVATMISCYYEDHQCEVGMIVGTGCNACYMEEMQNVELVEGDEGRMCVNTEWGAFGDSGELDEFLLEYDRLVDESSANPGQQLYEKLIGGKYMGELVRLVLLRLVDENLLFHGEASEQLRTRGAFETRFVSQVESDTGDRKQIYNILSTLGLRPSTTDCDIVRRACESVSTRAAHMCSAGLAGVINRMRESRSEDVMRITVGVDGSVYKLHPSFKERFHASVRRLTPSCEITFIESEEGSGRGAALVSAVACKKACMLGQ
The data set is described as follows: Isothermal titration calorimetry with GCK. It is filed as binding. The conditions noted are these: peptide up to 50 μM into GCK (10 μM), presence and absence of 0.2 M glucose, potassium phosphate 25 mM, DMSO 5%, 25°C. As for the experimental part:
Recombinant human pancreatic GCK containing an N-terminal hexahistidine tag was produced in the glucokinase auxotroph BM5340(DE3) and purified using a previously described procedure. TEV protease was expressed as a GST-fusion protein from a pGEX plasmid encoding the S219V variant, provided by David Waugh (Addgene plasmid 8827). Expression was induced with IPTG (1 mM) for 4 h at 30°C. Cell pellets were resuspended in Tris buffer (50 mM, pH 8.0) containing NaCl (100 mM), glycerol (10% v/v), benzamidine (1 mM) and dithiothreitol (10 mM) and lysed via French Press. Polyethyleneimine (0.1%) was added to the lysate and protein was purified on a glutathione-affinity column (GSTrap, GE Sciences). TEV protease was flash frozen and stored at -80°C for up to 1 month.
Isothermal titration calorimetry was performed at 25°C using a MicroCal VP-ITC (GE Healthcare) instrument. Bcl-xL (100 μM) in BAD buffer (0.1 M Tris, 0.1 M KCl, 0.5 M arginine, 2.5 mM CHAPS, 5 mM TCEP, 10% glycerol, pH 8.5) was titrated into the calorimeter cell containing size-exclusion chromatography purified BAD-GST (10–18 μM) in 4 μL injections. A 21-residue phosphorylated peptide containing the BH3 domain of BAD was synthesized and purified to >95% by Peptide2.0 (pBH3 = NLWAAQRYGRELRRM(p)SDKFVD). The peptide (300 μM) in potassium phosphate buffer (25 mM) containing KCl (25 mM), TCEP (4 mM) and DMSO (5%) with and without glucose (200 mM) was titrated into the cell containing GCK (10 μM) previously dialyzed against the same buffer. GCK (100 μM) in BAD buffer was titrated into the cell containing S118D BAD-GST (10–15 μM) in 13 μL injections. Data were analyzed using Origin software.
Background: ITC needs no label: the signal is the heat of the interaction.

Data set [2] is described as follows: Proteolysis and aggregation of recombinant BAD produced under native conditions. In kind it is physicochemical. On the procedure:
Under native conditions, cell pellet was resuspended and lysed in HEPES buffer (50 mM, pH7.6) containing NaCl (50 mM), imidazole (25 mM), glycerol (5%), and DTT (5 mM). PMSF, benzamidine, a protease inhibitor cocktail (Pierce), and BSA (0.1 mg/mL) were added to the lysis buffer in attempts to reduce protein degradation. Clarified lysate was applied to a HisTrap affinity column and following purification, purified BAD-GST was applied to a Superdex 200 10/30 HR size-exclusion column, at a flow rate of 0.02 mL/min.
Protein samples were excised from SDS-PAGE gels and exposed to trypsin digestion prior to analysis by mass spectroscopy. MALDI-TOF was performed on a Shimadzu Axima CFP MALDI-TOF in positive ion, reflectron mode. Linear trap quadripole (LTQ) Orbitrap MS was performed on a Thermo LTQ Orbitrap Velos HPLC-nESI-LIT-Orbitrap.
To facilitate biochemical characterization of the BAD:GCK complex, we sought a method to produce functional, recombinant human BAD. Several groups have used microbial hosts to produce BAD, however, functional characterization of the resulting protein was limited.

In data set [3] the target is T1, human pancreatic GCK. Put plainly: Analytical ultracentrifugation sedimentation velocity of equimolar mixtures with GCK. In kind it is binding. The conditions noted are these: equimolar mixture, BAD buffer pH 8.5, 20°C, 50,000 x g. As for the experimental part:
(§1) Sedimentation velocity experiments were conducted with an Optima XLI Ultracentrifuge (Beckman Coulter) using a four-hole rotor with three 420 μL samples in standard double-sector Epon centerpieces equipped with sapphire windows. Absorbance and interference data were collected simultaneously. Size-exclusion purified proteins were concentrated to OD280 nm = 0.3–1.0 prior to centrifugation. For complex formation, proteins were mixed in a 1:1 molar ratio in BAD buffer (0.1 M Tris, 0.1 M KCl, 0.5 M arginine, 2.5 mM CHAPS, 5 mM TCEP, 10% glycerol, pH 8.5) and incubated on ice 30 min prior to the start of the experiment. Experiments were carried out at 20°C and 50,000 x g. Data were analyzed with Ultrascan III software using a minimum of 70 scans per sample for analysis. Van Holde-Weischet analysis was performed to obtain S20,W values.

Data set [4] can be described thus: Analytical ultracentrifugation sedimentation velocity (oligomerization, shape). It is filed as physicochemical. The conditions noted are these: 20°C, 50,000 x g. On the procedure: as §1
In data set [5] the target is T2, Bcl-xL (Homo sapiens, UniProt Q07817, DEL45-84).
T2 construct: made in house
The data set is described as follows: Isothermal titration calorimetry of BAD-GST with Bcl-xL. In kind it is binding. The conditions noted are these: ITC, 25°C; Bcl-xL (100 μM) titrated into BAD-GST (10–18 μM), 4 μL injections, BAD buffer pH 8.5; average of two independent experiments. As for the experimental part: Exon 1 of human bcl-xl lacking the C-terminal residues 189–233 was obtained from Stanley Korsmeyer (Addgene plasmid 8755) and site-directed mutagenesis was performed to create the Δ45–84, Δ210–233 variant. Bcl-xL was expressed and purified using a modified procedure described previously. Briefly, Bcl-xL was purified by nickel affinity chromatography and dialyzed against potassium phosphate buffer (20 mM, pH 7.4) containing NaCl (50 mM), EDTA (1 mM), and DTT (10 mM). Protein was applied to a Superdex 200 10/30 HR size-exclusion column, at a flow rate of 0.02 mL/min, to remove aggregate and oligomers prior to binding assays.
Isothermal titration calorimetry was performed at 25°C using a MicroCal VP-ITC (GE Healthcare) instrument. Bcl-xL (100 μM) in BAD buffer (0.1 M Tris, 0.1 M KCl, 0.5 M arginine, 2.5 mM CHAPS, 5 mM TCEP, 10% glycerol, pH 8.5) was titrated into the calorimeter cell containing size-exclusion chromatography purified BAD-GST (10–18 μM) in 4 μL injections. A 21-residue phosphorylated peptide containing the BH3 domain of BAD was synthesized and purified to >95% by Peptide2.0 (pBH3 = NLWAAQRYGRELRRM(p)SDKFVD). […] Data were analyzed using Origin software.

T2 sequence (Q07817 with tags, fused parts or gaps DEL45-84): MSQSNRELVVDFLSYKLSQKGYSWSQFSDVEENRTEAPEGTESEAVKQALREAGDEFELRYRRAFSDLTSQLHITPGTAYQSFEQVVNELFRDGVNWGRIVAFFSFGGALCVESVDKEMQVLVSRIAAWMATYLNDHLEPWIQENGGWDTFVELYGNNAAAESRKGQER

Regarding “NLWAAQRYGRELRRM(p)SDKFVD [pBH3, 21-residue phosphorylated peptide containing the BH3 domain of BAD]”, the “Heat change on addition to GCK (ITC)” value in data set [1] was “No detectable heat change”; in data set [1] (listed as phosphorylated BH3 peptide), “do not indicate an interaction”.

B1: BAD-GST: recombinant human BAD with N-terminal hexahistidine tag and C-terminal GST fusion, TEV consensus sequence between (protein)
chain: MFQIPEFEPSEQEDSSSAERGLGPSPAGDGPSGSGKHHRQAPGLLWDASHQQEQPTSSSHHGGAGAVEIRSRHSSYPAGTEDDEGMGEEPSPFRGRSRSAPPNLWAAQRYGRELRRMSDEFVDSFKKGLPRPKSAGTATQMRQSSSWTRVFQSWWDRNLGRGSSAPSQ
modifications: left off: His6, N-terminal, state not stated | GST, C-terminal, kept
Usually Kd stands for the concentration at which binding is half-saturated. A higher Kd goes with lower affinity. On to B1, for which the “Proteolysis during recombinant production” value in data set [2] (MALDI-TOF, protease inhibitors failed to alleviate degradation) is on record as “extensive C-terminal proteolysis”. In data set [2] (native conditions, E. coli), the “Aggregation when produced under native conditions” value is “leads to aggregation of the protein”. The “Complex with GCK by analytical ultracentrifugation” value in data set [3] is reported as “does not reveal a higher molecular weight component indicative of complex formation”. Besides, the “Molecular weight from sedimentation velocity (oligomerization state)” value in data set [4] (predicted monomer BAD-GST 47 kDa, dimer) is on record as 98 kDa. In data set [4] (sedimentation velocity, unity = compact sphere), the “Frictional ratio f/f0” value amounted to 3.9. Also, the Kd in data set [5] stood at 7 nM.
